Laboratory results taken from patent publication US7135457B1, “Random peptides that bind to gastro-intestinal tract (GIT) transport receptors and related methods” (Cytogen Corporation, priority 1997, dated 2006).
Square brackets hold non-standard residues; d marks the D form. Peptide text beside a SMILES is read from it. * marks the point of attachment. Dansyl = CN(C)c1cccc2c(S(=O)(=O)*)cccc12

What was measured:
[1] = Peptide stability in simulated intestinal fluid (SIF); format: in vitro ADME; conditions: rank of relative stability to SIF, 1 = most stable
Protocol: The relative stability for ZElan031, ZElan053 and ZElan054 was determined in simulated intestinal fluid (SIF) SIF was made by dissolving 100 mg of pancreatin (Sigma cat# P-5 1625, lot# 122H0812) in 8.4 ml of phosphate stock solution, adjusting the pH to 7.5 with 0.2N NaOH and adjusting the volume to 10 ml with water.
Peptide (3.25 mg) was dissolved in 3.25 ml of 10,000 fold diluted SIF solution at 37° C. Aliquots (0.7 ml) of the digestion solution were then withdrawn at <1 min, 1 h, 3 h, and 21 h or 24 h. The samples were quickly passed through a syringe filter (Millipore Millex-GV 0.22 μm, part# SLGV025LS, lot# H2BM95250) and 300 μL of the filtered solution was immediately injected onto a Hewlett-Packard HPLC system equipped with a C-8 column (Applied Biosystems column and guard column: column-p/n 0711-0023 Spheri-5 ODS 5 μm, 220×4.6 mm). The products were eluted at 1.5 ml/min using an acetonitrile-water gradient. The major fluorescent peaks were collected, lyopholized and identified by MS analysis.

[2] = for presence in the systemic circulation (in words): text summary of HPT1 and hPEPT1 pools; for transport from the GIT closed loop into the portal circulation (in words): text summary of hSI, D2H, HPT1, hPEPT1 pools; for presence in the intestine samples or fractions (in words): text summary of the four pools
Protocol: In particular, phages selected in vitro to each receptor or binding site located in the GIT were amplified in E. coli, PEG-precipitated, resuspended in TBS and the titer of each phage sample was determined by plaquing in E. coli as described above. […] Using the in situ loop model described above, 0.5 ml of preselected phage library solution was injected into the tied-off portion of the duodenum/jejunum. Blood was collected into heparinized tubes from the portal vein at 0, 15, 30, 45 and 60 minutes. A blood sample was taken from the systemic circulation at the end of the experiment. Similarly, the portion of the duodenum/jejunum used for phage injection was taken at the end of the experiment.
Thirty microliters of the collected portal blood (neat and 10^−2, 10^−4, 10^−6 dilutions) was added to 30 μl E. coli K91Kan cells (overnight culture) and incubated at 37° C. for 10 min. Subsequently, 3 ml of top agarose was added and the samples were plated for plaques. One hundred microliters of the collected portal blood was added to 100 μl of E. coli K91Kan. Five milliliters of LB medium was then added and the samples were incubated at 37° C. overnight in a rotating microbial incubator. The E. coli was removed by centrifugation and the amplified phage supernatant samples were either titered directly or were PEG-precipitated, resuspended in TBS and titered. Following titration of the amplified phage, samples containing phage from each set of animals were combined, adjusting the titer of each sample to the same titer, and were plated for plaques on LB agar plates (22 cm^2 square plates). Either 12,000 or 24,000 phage were plated for plaques.
Thirty microliters of the collected systemic blood (neat and 10^−2, 10^−4, 10^−6 dilutions) was added to E. coli K91Kan cells, incubated at 37° C. for 10 min. Three ml of top agarose was then added and the samples were plated for plaques. One hundred microliters of the collected systemic blood was added to 100 μl of E. coli K91Kan, incubated at 37° C. for 10 min. Five milliliters of LB medium was then added and the samples were incubated at 37° C. overnight in a rotating microbial incubator. The E. coli was removed by centrifugation and the amplified phage supernatant samples were either titered directly or were PEG-precipitated, resuspended in TBS and titered. Following titration of the amplified phage, samples containing phage from each set of animals were combined, adjusting the titer of each sample to the same titer, and were plated for plaques on LB agar plates (22 cm^2 square plates). Either 12,000 or 24,000 phage were plated for plaques. The intestinal tissue portion used in each closed loop was excised. […] Alternatively, the tissue (in PBS supplemented with protease inhibitors) was homogenized in an Ultra Thorex homogenizer, washed 3 times in PBS containing protease inhibitors and resuspended in PBS containing protease inhibitors (Int-G samples). In each case, serial dilutions (neat and 10^−2, 10^−4, 10^−6 dilutions) of the tissue homogenate was titered in E. coli.
The phage amplified from the portal blood, systemic blood and intestinal tissue was plated for plaques. […] The filters were air-dried, and the DNA was cross-linked to the filter (UV crosslinking: 2 min, high setting). The filters were incubated in pre-hybridization buffer (6×SSC, 5×Denhardt's solution, 0.1% SDS, 20 μg/ml yeast tRNA) at 40° C.-45° C. for at least 60 min.
Synthetic oligonucleotides, (22-mers), complimentary to regions coding for the receptor or binding sites used to create the preselected phage library, were synthesized (see Table 14 below).
The oligonucleotides (5 pmol) were 5′ end labelled with ^32P-ATP and T4 polynucleotide kinase and approximately 2.5 pmol of labelled oligonucleotide was used in hybridization studies. […] The filters were air-dried and exposed for autoradiography for 15 hours, 24 hours or 72 hours.
Hybridization data for pools from each receptor group of rats was compiled.

[3] = Drug potency, peptide loading and size of coacervated particles; format: physicochemical; conditions: formulation 1 particles (coacervation), blend; for Insulin (insulin potency): coated with the named peptide; for Peptide (level of peptide coated onto the particles): measured by fluorescence
[4] = target: BSA (Bos taurus, UniProt P02769); assay: Phage ELISA on BSA (background control protein); format: binding
Protocol: 96 well plates were coated overnight with GIT receptor, BSA and, optionally, IDE (insulin degrading enzyme, an irrelevant His-fusion protein) or hTF. The plates were blocked for one hour with 0.5% BSA-PBS. After clarification, the amplified phage were diluted 1:100 in 1% BSA plus 0.05% Tween 20 in PBS and added to the plates. Following incubation of the plates on a rotator for 1 to 2 hours, the plates were washed 5 times with 1% BSA plus 0.05% Tween 20 in PBS. Dilute anti-M13-HRP conjugate (anti-M13 antibody linked to horse radish peroxidase (HRP)) was added to all the wells and the plate was incubated for one hour on a rotator. After the plates were washed 5 times, as described above, TMB substrate was added to the wells. The plates were read at 650 nm absorbance.

[5] = system: fixed Caco-2 cells; assay: Effect of thrombin cleavage on binding of GST-peptide fusions to fixed Caco-2 cells
Protocol: Binding of intact and thrombin-cleaved GST-peptide fusions to fixed Caco-2 cells was compared.
Thirty micrograms of each GST-peptide was treated with bovine thrombin (1μ/ml; 0.4 NIH units; Sigma CN.T9681) for 18 h at room temperature in 20 mM Tris-HCl pH8.0, 150 mM NaCl, 2.5 mM CaCl2. Controls were similarly treated without addition of thrombin. Ten micrograms of each GST-peptide fusion was removed for PAGE analysis, and 10 μg of fusions were added in duplicate to the fixed Caco-2 cells before 5-fold serial dilutions (1% BPT diluent). The fusions were allowed to bind for 1 h at room temperature. Following 6 washes with 1% BPT, binding was assayed by ELISA.

[6] = system: fixed Caco-2 or C2BBe1 cells; assay: ELISA of GST fusion proteins on fixed Caco-2 or C2BBe1 cells; format: binding
Protocol: Fixed Caco-2, C2BBe1, and A431 cell plates were prepared by growing cells on tissue culture treated microtiter plates. When cells were confluent, plates were fixed with 10% formaldehyde, washed twice with PBS and stored with 0.5% BSA-PBS at −20° C. […] The standard ELISA procedure was followed at this point.
The standard ELISA procedure was modified as follows. GST proteins were diluted to an appropriate concentration in PBS containing 1% BSA and 0.05% Tween20 (1% BPT), titered and incubated one hour at room temperature. Following five washes an anti-GST monoclonal antibody was added (Sigma, St. Louis Clone GST-2 diluted 1:10,000 in 1% BPT) and incubated one hour. After five more washes goat anti-mouse IgG2b-HRP was added (Southern Biotechnology Associates Inc., Birmingham, Ala., diluted 1:4000 in 1% BPT) and incubated one hour. After five washes plates were developed with TMB peroxidase substrate (Kirkegard and Perry, Gaithersburg, Md.). All data is presented with background binding subtracted.

[7] = Crossreactive binding of GST fusions to dansylated peptides
[8] = system: P100 membrane fraction derived from Caco-2 cells; assay: GST-PAX2 peptides relative binding to P100 fractions; conditions: 20 μg/ml; binding to plastic subtracted; GST-HAX42 = 1.00
Protocol: The peptides and proteins were analyzed by a dansylated peptide ELISA method in which 96 well plates were coated overnight at 4° C. with 100 μl/well coating protein (normally 100 μg/ml P100 membrane fraction) in 0.05M carbonate buffer pH9.6. Nonspecific binding was blocked using 200 μl/well, 2% Marvel/PBS for 2 hours at 37° C. prior to incubation with dansylated peptides. The plates were washed three times with PBS/0.05% Tween 20 and after each subsequent incubation step. […] A buffer blank control was included to ensure that background binding to plastic was not due to the antibodies used in the assay system. […] The plates were then incubated with an anti-mouse λ-HRP conjugated antibody (Southern Biotech 1060-05) at a 1:10,000 dilution in blocking solution, 100 μl/well for 1 hour at room temperature. Plates were developed using 75 μl/well Bionostics TMB substrate and incubated for approximately 10 minutes. The developing reaction was stopped using Bionostics Red Stop solution (25 μl/well), and the optical density of the plates was read at 650 nm.
After subtraction of the GST-peptide binding to plastic from P100 binding values, the binding of GST-PAX2 peptides were represented as a ratio of GST-HAX42 binding to P100, which was given the arbitrary value of 1.00. The following ratios were determined from binding to P100 of GST-peptides at a peptide concentration of 20 μg/ml. Bold denotes positive binding to the P100 membrane fraction.

Sequence of BSA (P02769 25-607): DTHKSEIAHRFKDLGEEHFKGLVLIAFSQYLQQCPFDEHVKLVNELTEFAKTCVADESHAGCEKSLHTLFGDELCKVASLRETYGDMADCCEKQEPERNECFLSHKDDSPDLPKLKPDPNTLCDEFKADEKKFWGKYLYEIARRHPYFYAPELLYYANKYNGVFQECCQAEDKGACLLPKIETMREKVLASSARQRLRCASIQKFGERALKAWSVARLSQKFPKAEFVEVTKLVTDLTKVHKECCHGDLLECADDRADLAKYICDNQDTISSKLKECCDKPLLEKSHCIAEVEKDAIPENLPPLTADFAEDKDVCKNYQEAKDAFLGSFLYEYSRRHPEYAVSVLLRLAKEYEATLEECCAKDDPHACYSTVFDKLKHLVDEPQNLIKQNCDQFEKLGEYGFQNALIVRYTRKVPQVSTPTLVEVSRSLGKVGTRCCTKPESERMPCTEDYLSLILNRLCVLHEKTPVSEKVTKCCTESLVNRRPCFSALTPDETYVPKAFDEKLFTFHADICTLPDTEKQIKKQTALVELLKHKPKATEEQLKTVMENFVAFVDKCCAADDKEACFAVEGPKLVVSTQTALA

Compound: C[C@@H](O)[C@H](NC(=O)[C@@H](N)CCCCNS(=O)(=O)c1cccc2c(N(C)C)cccc12)C(=O)N[C@@H](CCCNC(=N)N)C(=O)N[C@@H](CCCCN)C(=O)N[C@@H](CO)C(=O)N[C@@H](CO)C(=O)N[C@@H](CCCNC(=N)N)C(=O)N[C@@H](CO)C(=O)N[C@@H](CC(N)=O)C(=O)N1CCC[C@H]1C(=O)N[C@@H](CCCNC(=N)N)C(=O)NCC(=O)N[C@@H](CCCNC(=N)N)C(=O)N[C@@H](CCCNC(=N)N)C(=O)N[C@@H](Cc1c[nH]cn1)C(=O)N1CCC[C@H]1C(=O)NCC(N)=O [ZElan031] (H-K(Dansyl)TRKSSRSNPRGRRHPG-NH2)
- Rel. Stab. [1]: 3

Compound: C[C@@H](O)[C@H](NC(=O)[C@@H](N)CCCCNS(=O)(=O)c1cccc2c(N(C)C)cccc12)C(=O)N[C@@H](CCCNC(=N)N)C(=O)N[C@@H](CCCCN)C(=O)N[C@@H](CO)C(=O)N[C@@H](CO)C(=O)N[C@H](CCCNC(=N)N)C(=O)N[C@@H](CO)C(=O)N[C@@H](CC(N)=O)C(=O)N1CCC[C@H]1C(=O)N[C@@H](CCCNC(=N)N)C(=O)NCC(=O)N[C@H](CCCNC(=N)N)C(=O)N[C@@H](CCCNC(=N)N)C(=O)N[C@@H](Cc1c[nH]cn1)C(=O)N1CCC[C@H]1C(=O)NCC(N)=O [ZElan054, H2N-K(dns)TRKSSrSNPRGrRHPG-CONH2] (H-K(Dansyl)TRKSS[dR]SNPRG[dR]RHPG-NH2)
- Rel. Stab. [1]: 2

Compound: SARDSGPAEDGSRAVRLNGVENANTRKSSRSNPRGRRHP [Peptide P31]
- presence in the systemic circulation (in words) [2]: found in the systemic circulation
- transport from the GIT closed loop into the portal circulation (in words) [2]: found in the portal circulation
- presence in the intestine samples or fractions (in words) [2]: preferential binding
- Insulin (insulin potency) [3]: 67.0 mg/g
- Peptide (level of peptide coated onto the particles) [3]: 1.22 µL/mg
- BSA ([4]; Table 4): 0.075 OD

Compound: SDHALGTNLRSDNAKEPGDYNCCGNGNSTGRKVFNRRRPSAIPT [HAX42]
- presence in the systemic circulation (in words) [2]: found in the portal and systemic circulation
- transport from the GIT closed loop into the portal circulation (in words) [2]: found in the portal and systemic circulation
- Insulin (insulin potency) [3]: 55.9 mg/g
- Peptide (level of peptide coated onto the particles) [3]: 2.93 µL/mg
- BSA ([4]; Table 5): 0.071 OD

Compound: SQGSKQCMQYRTGRLTVGSEYGCGMNPARHATPAYPARLLPRYR [DCX11]
- transport from the GIT closed loop into the portal circulation (in words) [2]: preferably transported
- presence in the intestine samples or fractions (in words) [2]: found in the intestinal samples fractions
- BSA ([4]; Table 3): 0.071 OD

Compound: gst-ENANTRKSSRSNPRGRRHP [GST-P31.103]
- effect of thrombin cleavage on detection of binding to fixed Caco-2 cells ([5]; Caco-2): significantly reduced
- binding of truncated GST fusion compared with full-length, fixed Caco-2 cells ([6]; Caco-2): bound almost as well as full-length P31

Compound: gst-RVGQCTDSDVRRPWARSCAHQGCGAGTRNSHGCITRPLRQASAH [GST-SNi10]
- effect of thrombin cleavage on detection of binding to fixed Caco-2 cells ([5]; thrombin 18 h at room temperature): significantly reduced
- binding to fixed Caco-2 or C2BBe1 cells relative to GST control ([6]; anti-GST ELISA): bound

Compound: gst-SDHALGTNLRSDNAKEPGDYNCCGNGNSTGRXVFNRRRPSAIPT [GST-HAX42]
- binding to fixed Caco-2 or C2BBe1 cells relative to GST control ([6]; Caco-2): weak to moderate binding
- crossreactivity to ZElan018 (PAX2) and ZElan021 (HAX42) ([7]; 5 μg/ml GST fusion): exhibited crossreactivity
- Value: binding to P100 as a ratio of GST-HAX42 binding [8]: 1.00

Compound: gst-STPPSREAYSRPYSVDSDSDTNAKHSSHNRRLRTRSRPN [GST-PAX2]
- binding to fixed Caco-2 or C2BBe1 cells relative to GST control ([6]; Caco-2): bound
- crossreactive binding to ZElan024 (P31) and ZElan018 (PAX2) ([7]; 0.5 μg/ml GST fusion): no crossreactive binding
- Value: binding to P100 as a ratio of GST-HAX42 binding [8]: 1.79

Compound: gst-TNAKHSSHNRRLRTRSRPN [GST-106]
- effect of thrombin cleavage on detection of binding to fixed Caco-2 cells ([5]; Caco-2): significantly reduced
- binding of truncated GST fusion compared with full-length, fixed Caco-2 cells ([6]; Caco-2): bound similarly to full-length PAX2
- Value: binding to P100 as a ratio of GST-HAX42 binding [8]: 2.71
